Measurements published in US20020127539A1, “Assays for identifying receptors having alterations in signaling” (priority 2000, published 2002).

Legend:
[1] = target: wild-type rat mu opioid receptor (rat); assay: cell-based or functional assay
[2] = target: Asn150Ala mutant rat mu opioid receptor (rat); assay: cell-based or functional assay

Substance: [D-Ala2-MePhe4, Gly-ol5]enkephalin (peptide)
- Average Ligand Stimulated Activity (Light Emission), SRE-Luc + Gq5i luciferase reporter in HEK293 cells (light emission) [1]: 87500
- Average Ligand Stimulated Activity (Light Emission), SRE-Luc + Gq5i luciferase reporter in HEK293 cells (light emission) [2]: 87000
